{"source": "paper PMC8805389", "about": "“High-level production of the agmatine in engineered Corynebacterium crenatum with the inhibition-releasing arginine decarboxylase” (Microbial Cell Factories, 2022)", "key": {"purified protein": {"substrate": "N=C(N)NCCC[C@H](N)C(=O)O", "assay": "purified protein", "details": "50 mM Tris-HCl pH 8.0, 2.5 mM MgSO4, 0.6 mM PLP, 37 °C"}, "[1]": {"substrate": "N=C(N)NCCC[C@H](N)C(=O)O", "assay": "arginine decarboxylase activity, agmatine by HPLC", "assay_type": "biochemical, Escherichia coli", "details": "50 mM Tris-HCl pH 8.0, 2.5 mM MgSO4, 0.6 mM PLP, 37 °C", "excerpt": "arginine decarboxylase activity, agmatine by HPLC on SpeA"}}}
{"protein": "SpeA (Escherichia coli K-12) (protein) MSDDMSMGLPSSAGEHGVLRSMQEVAMSSQEASKMLRTYNIAWWGNNYYDVNELGHISVCPDPDVPEARVDLAQLVKTREAQGQRLPALFCFPQILQHRLRSINAAFKRARESYGYNGDYFLVYPIKVNQHRRVIESLIHSGEPLGLEAGSKAELMAVLAHAGMTRSVIVCNGYKDREYIRLALIGEKMGHKVYLVIEKMSEIAIVLDEAERLNVVPRLGVRARLASQGSGKWQSSGGEKSKFGLAATQVLQLVETLREAGRLDSLQLLHFHLGSQMANIRDIATGVRESARFYVELHKLGVNIQCFDVGGGLGVDYEGTRSQSDCSVNYGLNEYANNIIWAIGDACEENGLPHPTVITESGRAVTAHHTVLVSNIIGVERNEYTVPTAPAEDAPRALQSMWETWQEMHEPGTRRSLREWLHDSQMDLHDIHIGYSSGIFSLQERAWAEQLYLSMCHEVQKQLDPQNRAHRPIIDELQERMADKMYVNFSLFQSMPDAWGIDQLFPVLPLEGLDQVPERRAVLLDITCDSDGAIDHYIDGDGIATTMPMPEYDPENPPMLGFFMVGAYQEILGNMHNLFGDTEAVDVFVFPDGSVEVELSDEGDTVADMLQYVQLDPKTLLTQFRDQVKKTDLDAELQQQFLEEFEAGLYGYTYLEDE", "values": [{"measurement": "Km", "setting": "purified protein", "value": "602 ± 92", "unit": "µM"}, {"measurement": "kcat", "setting": "purified protein", "value": "1.79 ± 0.135", "unit": "s⁻¹"}, {"measurement": "kcat/Km", "setting": "purified protein", "value": 2970, "unit": "M⁻¹ s⁻¹"}]}
{"protein": "SpeA (Escherichia coli K-12; I534D) (protein, C-terminal His-tag; expressed in E. coli BL21(DE3) from pXMJ19; HisTrap purified; tetramer (two dimers)) MSDDMSMGLPSSAGEHGVLRSMQEVAMSSQEASKMLRTYNIAWWGNNYYDVNELGHISVCPDPDVPEARVDLAQLVKTREAQGQRLPALFCFPQILQHRLRSINAAFKRARESYGYNGDYFLVYPIKVNQHRRVIESLIHSGEPLGLEAGSKAELMAVLAHAGMTRSVIVCNGYKDREYIRLALIGEKMGHKVYLVIEKMSEIAIVLDEAERLNVVPRLGVRARLASQGSGKWQSSGGEKSKFGLAATQVLQLVETLREAGRLDSLQLLHFHLGSQMANIRDIATGVRESARFYVELHKLGVNIQCFDVGGGLGVDYEGTRSQSDCSVNYGLNEYANNIIWAIGDACEENGLPHPTVITESGRAVTAHHTVLVSNIIGVERNEYTVPTAPAEDAPRALQSMWETWQEMHEPGTRRSLREWLHDSQMDLHDIHIGYSSGIFSLQERAWAEQLYLSMCHEVQKQLDPQNRAHRPIIDELQERMADKMYVNFSLFQSMPDAWGIDQLFPVLPLEGLDQVPERRAVLLDITCDSDGADDHYIDGDGIATTMPMPEYDPENPPMLGFFMVGAYQEILGNMHNLFGDTEAVDVFVFPDGSVEVELSDEGDTVADMLQYVQLDPKTLLTQFRDQVKKTDLDAELQQQFLEEFEAGLYGYTYLEDE", "values": [{"measurement": "Km", "setting": "[1]", "value": "623 ± 75", "unit": "µM"}, {"measurement": "kcat", "setting": "[1]", "value": "2.64 ± 0.328", "unit": "s⁻¹"}, {"measurement": "kcat/Km", "setting": "[1]", "value": 4240, "unit": "M⁻¹ s⁻¹"}]}
{"protein": "SpeA (Escherichia coli K-12; I534S) (protein, C-terminal His-tag; expressed in E. coli BL21(DE3) from pXMJ19; HisTrap purified; tetramer (two dimers)) MSDDMSMGLPSSAGEHGVLRSMQEVAMSSQEASKMLRTYNIAWWGNNYYDVNELGHISVCPDPDVPEARVDLAQLVKTREAQGQRLPALFCFPQILQHRLRSINAAFKRARESYGYNGDYFLVYPIKVNQHRRVIESLIHSGEPLGLEAGSKAELMAVLAHAGMTRSVIVCNGYKDREYIRLALIGEKMGHKVYLVIEKMSEIAIVLDEAERLNVVPRLGVRARLASQGSGKWQSSGGEKSKFGLAATQVLQLVETLREAGRLDSLQLLHFHLGSQMANIRDIATGVRESARFYVELHKLGVNIQCFDVGGGLGVDYEGTRSQSDCSVNYGLNEYANNIIWAIGDACEENGLPHPTVITESGRAVTAHHTVLVSNIIGVERNEYTVPTAPAEDAPRALQSMWETWQEMHEPGTRRSLREWLHDSQMDLHDIHIGYSSGIFSLQERAWAEQLYLSMCHEVQKQLDPQNRAHRPIIDELQERMADKMYVNFSLFQSMPDAWGIDQLFPVLPLEGLDQVPERRAVLLDITCDSDGASDHYIDGDGIATTMPMPEYDPENPPMLGFFMVGAYQEILGNMHNLFGDTEAVDVFVFPDGSVEVELSDEGDTVADMLQYVQLDPKTLLTQFRDQVKKTDLDAELQQQFLEEFEAGLYGYTYLEDE", "values": [{"measurement": "Km", "setting": "[1]", "value": "691 ± 69", "unit": "µM"}, {"measurement": "kcat", "setting": "[1]", "value": "2.12 ± 0.206", "unit": "s⁻¹"}, {"measurement": "kcat/Km", "setting": "[1]", "value": 3070, "unit": "M⁻¹ s⁻¹"}]}
